Laboratory results reported in patent US11697680B2, “Anti-GP73 antibodies and immunoconjugates” (CUREAB GMBH, priority 2016, dated 2023).

Columns and labels:
[1] = system: HuH7 (human hepatocellular carcinoma); test: Cell viability / proliferation with PrestoBlue reagent; assay type: cell-based; details: 0.125 mg/ml to 2 mg/ml, after 72 hrs
Method: FIG. 13A Proliferation of HuH7 cells (human hepatocellular carcinoma) after treatment with different antibodies. HuH7 cells were treated with G2-2, G2-2 plus Cetuximab, mG2-2, mG2-2 plus Cetuximab, Cetuximab or control antibody each in increasing concentrations from 0.125 mg/ml to 2 mg/ml. Proliferating cells were measured after 72 hrs. […] This effect was independent of the Fc part i.e. human IgG1 in G2-2 or murin IgG2a in mG2-2 as described in Example 8.
FIG. 13B Proliferation of HuH7 cells (human hepatocellular carcinoma), 4T1 cells (murin breast carcinoma) and CaCo2 cells (human colorectal carcinoma) after treatment with different antibodies. The three cell lines were treated with G2-1, G2-1 plus Cetuximab, Cetuximab, Bevacizumab or Bevacizumab plus Cetuximab 2 mg/ml total. Proliferating cells were measured after 72 hrs.
Cells from the cell lines HuH7 (human hepatocellular carcinoma), 4T1 (murin breast carcinoma) and CaCo2 (human colorectal carcinoma) were cultured under standard conditions in Dulbecco's modified Eagle Medium (DMEM) supplemented with 10% fetal calf serum (FCS) at 37° C. with 5% CO2. […] Fluorescence was read at 615 nm to quantify cell viability. […]
To test the effect of G2-1 on different cell lines, HuH7, 4T1 and CaCo2 cells were transferred to 96 well plates. […] Cell viability was quantified after 72 hours using PrestoBlue reagent and measuring the fluorescence at 615 nm.

GP73 peptide: […] = molecular target: T1, GP73 peptide: […] (Homo sapiens, UniProt Q8NBJ4); test: Biacore surface plasmon resonance, data fit for 1:1 binding; details: Biacore 1:1 binding fit, GP73 peptide SSRSVDLQTRIMELEGRVRR
T1 construct: GP73 peptide: […]
Method: In one embodiment, Kd is measured using surface plasmon resonance assays using a BIACORE®-2000 or a BIACORE®-3000 (BIAcore, Inc., Piscataway, N.J.) at 25° C. with immobilized antigen CM5 chips at […] response units (RU). Briefly, carboxymethylated dextran biosensor chips (CM5, BIACORE, Inc.) are activated with N-ethyl-N′-(3-dimethylaminopropyl) carbodiimide hydrochloride (EDC) and N-hydroxysuccinimide (NHS) according to the supplier's instructions. Antigen is diluted with 10 mM sodium acetate, pH 4.8, to 5 μg/ml (−0.2 μM) before injection at a flow rate of 5 μl/minute to achieve approximately 10 response units (RU) of coupled protein. Following the injection of antigen, 1 M ethanolamine is injected to block unreacted groups. For kinetics measurements, two-fold serial dilutions of antibody (0.58 nM to 200 nM) are injected in PBS with 0.05% polysorbate 20 (TWEEN-20™) surfactant (PEST) at 25° C. at a flow rate of approximately 25 μl/min. Association rates (kon) and dissociation rates (koff) are calculated using a simple one-to-one Langmuir binding model (BIACORE® T100 Evaluation Software) by simultaneously fitting the association and dissociation sensorgrams. The equilibrium dissociation constant (Kd) is calculated as the ratio koff/kon. See, e.g., Chen et al., J. Mol. Biol. 293:865-881 (1999). If the on-rate exceeds […] s^−1 by the surface plasmon resonance assay above, then the on-rate can be determined by using a fluorescent quenching technique that measures the increase or decrease in fluorescence emission intensity (excitation=295 nm; emission=340 nm, 16 nm band-pass) at 25° C. of a 20 nM anti-antigen antibody in PBS, pH 7.2, in the presence of increasing concentrations of antigen as measured in a spectrometer, such as a stop-flow equipped spectrophometer (Aviv Instruments) or a 8000-series SLM-AMINCO™ spectrophotometer (ThermoSpectronic) with a stirred cuvette.

B1: G2-2: scFv clone with human IgG1 heavy and human Igk light constant regions; VH/VL SEQ ID NO: 2 and 3; binds rGP73 AA 36-55 (antibody, V domains shown)
VH: EVQLLQSGGGVVQPGRSLRLSCAASGFTFSSYGMSWVRQAPGKGLEWVAVISYDGSNKYYADSVKGRFTISRDNSKNTLYLQMNSLRAEDTAVYYCAREGSAGMDVWGQGTTVTVSS
VL: DIQMTQPSSLSASPGASASLTCTLRSDISVGFHRIYWYQQKPGSPPQYLLRYKSDSDKQQGSGVPSRFSGSKDASANAGILLISGLQSDDEADYYCVIWHTSGVVFGGGTKVEIK
modifications: human IgG1 and Igk constant regions not cited; G2-2 heavy chain variable region (VH); G2-2 light chain variable region (VL)
cell proliferation / cell viability [1]: reduced depending on antibody concentration | koff, measurement 1 + 2 mean (GP73 peptide: […]): 0.001108 s⁻¹ | kon, measurement 1 + 2 mean (GP73 peptide: […]): 260200 M⁻¹ s⁻¹ | Kd (GP73 peptide: […]; read-out: Kd, measurement 1 + 2 mean): 4.29 nM
